Laboratory results reported in patent US20080220446A1, “Method for Detecting and/or Removing Protein and/or Peptide Comprising a Cross-Beta Structure From an Aqueous Solution Comprising a Protein” (priority 2005, published 2008).

Assays:
tPA [1] = target: T1, tPA (Homo sapiens, UniProt P00750); assay: tPA/plasminogen activation assay; format: biochemical; conditions: % of standardized positive control; 1:10 diluted samples
Protocol: (§1) β2-GPI was reduced and alkylated as follows. Sixhundredforty μl of β2-GPI stock was mixed with 640 μl of 8 M Urea (cooled solution) in 0.1 M Tris pH-8.2. The solution was degassed with N2 gas for approximately 6 minutes. From a 1 M DTT stock 12.8 μl was added to the solution, mixed and incubated for 3 hours at room temperature. A 1 M Iodoacetamide (Sigma; I-6125) was prepared, of which 25.6 μl was added to the β2-GPI reaction mixture. The solution was subsequently dialysed against PBS. […] Signals obtained with alkyl-β2gpi are compared with those obtained with native β2gpi starting material and with positive control acid/heat denatured amyloid-like misfolded γ-globulins.
Exiqon Peptide Immobilizer plates were blocked for 1 hour with PBS, 1% Tween20 and rinsed twice with distilled water. The conversion of the chromogenic substrate S-2251 (Chromogenix, Italy) by plasmin was kinetically measured at 37° C. on a Spectramax340 microplate reader at a wavelength of 405 nm. […] Denatured γ-globulins (100 μg/ml) with amyloid-like structure was used as reference and positive control. Lyophilized γ-globulins (Sigma, Mo., USA) were dissolved in a 1(:)1 volume ratio of 1,1,1,3,3,3-hexafluoro-2-propanol and trifluoro-acetic acid and subsequently dried under air. Dried γ-globulins was dissolved in H2O to a final concentration of 1 mg/ml and kept at room temperature for at least three days and subsequently stored at −20° C.
(§2) Protein therapeutics were obtained from the local hospital pharmacy and analyzed within the expiry limits as stated by the manufacturers.

[2] = Stability testing of biopharmaceuticals under denaturing conditions; format: physicochemical; conditions: after exposure to harsh denaturing conditions (low pH or heat)
Protocol: For this purpose, 5 mg/mL Glucagon (Glucagen; Novo Nordisk Farma B. V., Alphen aan de Rijn, The Netherlands) was incubated at 37° C. in 0.01 M HCl for 48 hours. One mg/mL Etanercept (Enbrel; Wyeth Pharmaceuticals B. V., Hoofddorp, The Netherlands) in 67 mM sodium phosphate buffer, 100 mM NaCl pH 7.0 was gradually heated from 30° C. to 85° C. over a period of 12 minutes and afterwards cooled to 4° C. for 5 minutes, this treatment was repeated 4 times. Abciximab (Reopro; Centocor B. V., Leiden, The Netherlands) and Infliximab (Remicade; Schering-Plough B. V., Utrecht, The Netherlands) were incubated at 65° C. for 16 and 72 hours, respectively.

tPA [3] = target: T1, tPA; assay: Plasminogen-activation assay (tPA activation, S-2251); format: biochemical; conditions: for tPA activating potential: Example 4, native, heat-denatured or alkylated preparation as labelled
Protocol: Plasmin (Pls) activity was assayed as described^16. Peptides and proteins that were tested for their stimulatory ability were regularly used at 100 μg ml^−1. […] Chromogenic substrate S-2251 (Chromogenix, Instrumentation Laboratory SpA, Milano, Italy) was used to measure Pls activity. Conversion of zymogen factor XII (#233490, Calbiochem, EMD Biosciences, Inc., San Diego, Calif.) to proteolytically active factor XII (factor XIIa) was assayed by measurement of the conversion of chromogenic substrate Chromozym-PK (Roche Diagnostics, Almere, The Netherlands) by kallikrein. Chromozym-PK was used at a concentration of 0.3 mM. Factor XII, human plasma prekallikrein (#529583, Calbiochem) and human plasma cofactor high-molecular weight kininogen (#422686, Calbiochem) were used at concentrations of 1 μg ml^−1. […] Assays were performed using microtiter plates (Costar, Cambridge, Mass., USA). Peptides and proteins were tested for their ability to activate factor XII. 150 μg ml^−1 kaolin, an established activator of factor XII was used as positive control and solvent (H2O) as negative control. The conversion of Chromozym-PK was recorded kinetically at 37° C. for at least 60 minutes. Assays were done in duplicate.
(§3) Formulated protein therapeutics were obtained from the local hospital pharmacy and were used as supplied by the manufacturers. […] Lyophilized therapeutics were dissolved according to the manufacturers recommendations. GH, zinc-insulin, Cealb and gelatin were stored at −20, 4, room temperature, 37 and 65° C. Other protein therapeutics were only kept at 4° C., and assayed for the presence of cross-β structure at shown time points. Enhancement in fluorescence of ThT and Congo red was measured with all formulated protein therapeutics. For this purpose, proteins were diluted to the indicated concentrations. […] Zinc-insulin was diluted tenfold in the activation assay, GH was diluted to a final concentration of 500 μg ml^−1. Activation of factor XII and prekallikrein by the therapeutics was tested in the chromogenic factor XII assay (see above). […] After coating, plates were blocked with Blocking Reagent (Roche Diagnostics, Almere, The Netherlands).
(§4) To prepare structurally altered ovalbumin (OVA) with amyloid cross-β structures, purified OVA (Sigma, A-7641, lot 071k7094) was heated to 85° C. One mg ml^−1 OVA in 67 mM NaPi buffer pH 7.0, 100 mM NaCl, was heated for two cycles in PCR cups in a PTC-200 thermal cycler (MJ Research, Inc., Waltham, Mass., USA). In each cycle, OVA was heated from 30 to 85° C. at a rate of 5° C./min. Native OVA (nOVA) and heat-denatured OVA (dOVA) were tested in the ThT fluorescence assay and in the Plg-activation assay. In the fluorescence assay and in the Plg-activation assay, 25 and 100 μg ml^−1 nOVA and dOVA were tested, respectively. TEM images of nOVA and dOVA were taken to check for the presence of large aggregates.
MSA (#126674, Calbiochem) was dissolved in 8 M urea, 100 mM Tris-HCl pH 8.2, at 10 mg ml^−1 final concentration. Dithiothreitol (DTT) was added to a final concentration of 10 mM. Air was replaced by N2 and the solution was incubated for 2 h at room temperature. Then, the solution was transferred to ice and iodoacetamide was added from a 1 M stock to a final concentration of 20 mM. […] Alkyl-MSA was dialyzed against H2O before use. […] In the ThT-fluorescence assay 25 μg ml^−1 nMSA and alkyl-MSA were tested, and in the Plg-activation assay 100 μg ml^−1 was tested. The presence of aggregates or fibrils was analyzed using TEM.
Lyophilized sterile glucagon was dissolved at 1 mg ml^−1 in H2O with 10 mM HCl. The solution was subsequently kept at 37° C. for 24 h, at 4° C. for 14 days and again at 37° C. for 9 days. […] TEM analysis was performed to assess the presence of large multimeric structures.

[4] = Thioflavin T fluorescence of protein solutions; format: physicochemical
Protocol: (§5) Fluorescence of ThT—protein/peptide adducts was measured as follows. […] Fluorescence was measured at 485 nm upon excitation at 435 nm. Background signals from buffer, buffer with ThT and protein/peptide solution without ThT were subtracted from corresponding measurements with protein solution incubated with ThT. Regularly, fluorescence of Aβ was used as a positive control, and fluorescence of FP10, a non-amyloid fibrin fragment^16, was used as a negative control. Fluorescence was measured in triplicate on a Hitachi F-4500 fluorescence spectrophotometer (Ltd., Tokyo, Japan).
as §3
ThT fluorescence of β2GPI was measured as follows. […] CL vesicles were prepared according to an established procedure. Briefly, CL was dried under a stream of nitrogen. The lipids were resuspended to a concentration of 10 mg ml^−1 in 25 mM Tris-HCl, pH 7.3, 150 mM NaCl by vigorous agitation, using a vortex. In the ThT fluorescence assay, fluorescence of β2GPI in buffer, of CL or DXS500k in buffer, of buffer and ThT alone, and of β2GPI-CL adducts and β2GPI-DXS500k adducts, with or without ThT, was recorded as described above (section ThT fluorescence). In addition, TEM images were recorded with CL, β2GPI from human plasma, with or without CL, and with recombinant β2GPI, as described^5.
as §4
MSA (#126674, Calbiochem) was dissolved in 8 M urea, 100 mM Tris-HCl pH 8.2, at 10 mg ml^−1 final concentration. Dithiothreitol (DTT) was added to a final concentration of 10 mM. Air was replaced by N2 and the solution was incubated for 2 h at room temperature. Then, the solution was transferred to ice and iodoacetamide was added from a 1 M stock to a final concentration of 20 mM. […] In the ThT-fluorescence assay 25 μg ml^−1 nMSA and alkyl-MSA were tested, and in the Plg-activation assay 100 μg ml^−1 was tested. The presence of aggregates or fibrils was analyzed using TEM. […]

[5] = ThT fluorescence enhancement by biopharmaceuticals; format: physicochemical; conditions: +/− SD; five μL of protein therapeutic
Protocol: as §5, §1, §2
(§6) Fluorescence of Thioflavin T (ThT; Sigma T-3516, St. Louis, Mo., USA) and Congo red (CR; Aldrich Chemical Company Inc., Milwaukee, Wis., USA) was measured on a Hitachi F-4500 spectrophotometer at an excitation wavelength of 435 nm and emission wavelength of 485 nm for ThT and an excitation wavelength of 550 nm and emission wavelength of 595 nm for Congo red. […] Fluorescence was measured in triplicate. Background fluorescence of both protein in buffer and dye-solution were subtracted from the total fluorescence signal. Five μg/mL fibrillar amyloid-β(1-40) E22Q (Peptide Synthesis Facility of the Dutch Cancer Institute NKI, Amsterdam, The Netherlands) was used as a positive control in all fluorescence assays.

[6] = Congo red fluorescence enhancement by biopharmaceuticals; format: physicochemical; conditions: +/− SD; five μL of protein therapeutic
Protocol: Background signals from buffer, buffer with Congo red and protein/peptide solution without Congo red were subtracted from corresponding measurements with protein solution incubated with Congo red. Fluorescence was measured in triplicate on a Hitachi F-4500 fluorescence spectrophotometer (Ltd., Tokyo, Japan).
as §2, §6

tPA [7] = target: T1, tPA; assay: tPA binding assay with immobilized biopharmaceuticals in an ELISA; conditions: coated 1:10, one-site binding model
Protocol: Plates were washed twice with Tris buffered saline pH 7.2 containing 0.1% Tween20 (TBST) and blocked with PBS containing 1% Tween20 for 1 hour at room temperature. […] Plates were washed five times with TBST and incubated with peroxidase labeled anti-mouse immunoglobulins (RAMPO; DAKOCytomation, Glostrup, Denmark) diluted 1:3000 in PBST for 30 minutes at room temperature. Plates were washed five times with PBS 0.1% Tween20, and stained with 100 μL/well of tetramethyl-benzidine (TMB) substrate (Biosource Europe, Nivelles, Belgium). The reaction was terminated with 50 μL/well of 2 M H2SO4 and substrate conversion was read at 450 nm on a Spectramax340 microplate reader. Curves were fitted with a one-site binding model (GraphPad Prism version 4.02 for Windows, Graphpad Software, Calif., USA) from which Kd and Bmax were determined.
as §2

tPA [8] = target: T1, tPA; assay: tPA ELISA with coated protein therapeutics; format: binding; conditions: ELISA, stored at the recommended temperature of 4° C.
Protocol: as §3

[9] = glucagon after heat-denaturation at 37° C. at low pH in HCl buffer

T1 sequence (P00750 36-562): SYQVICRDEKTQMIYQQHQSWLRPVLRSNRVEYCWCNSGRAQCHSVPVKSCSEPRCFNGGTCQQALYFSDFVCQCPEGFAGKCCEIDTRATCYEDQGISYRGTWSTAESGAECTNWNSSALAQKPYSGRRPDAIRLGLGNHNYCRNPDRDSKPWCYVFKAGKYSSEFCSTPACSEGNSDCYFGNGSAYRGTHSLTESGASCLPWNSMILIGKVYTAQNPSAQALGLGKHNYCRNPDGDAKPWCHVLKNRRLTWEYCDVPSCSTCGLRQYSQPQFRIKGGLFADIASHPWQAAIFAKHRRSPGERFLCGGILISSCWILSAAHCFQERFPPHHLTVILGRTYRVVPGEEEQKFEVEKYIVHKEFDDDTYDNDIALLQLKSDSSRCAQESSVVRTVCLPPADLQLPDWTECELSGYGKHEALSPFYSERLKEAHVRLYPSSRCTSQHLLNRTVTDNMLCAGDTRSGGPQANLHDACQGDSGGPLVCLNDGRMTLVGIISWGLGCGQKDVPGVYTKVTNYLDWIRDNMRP

Substance | tPA activation Max. Activation (tPA [1]) | amyloid-like properties (ThT-fluorescence and tPA activation) [2] | tPA activating potential (tPA [3]) | enhancement of ThT fluorescence ([4]; Example 4, native, heat-denatured or alkylated preparation as labelled) | Fluorescence ThT [5] | tPA activation (tPA [3]; [9]) | enhancement of ThT fluorescence [4, 9] | Fluorescence CR [6] | tPA activation (tPA [3]; protein solutions stored at 4° C.) | tPA Binding Bmax (tPA [7]) | binding of tPA (tPA [8]) | presence of cross-β structure conformation ([4]; conclusion from ThT fluorescence, Plg-activation assay and TEM)
Etanercept | 0% | amyloid-like properties are adopted | some tPA activation | some ThT fluorescence enhancement | 23 +/− 3 a.u. | – | – | – | – | – | – | –
Glucagon: human glucagon (Glucagen, Novo Nordisk) | 11.25% | amyloid-like properties are adopted | some tPA activating potential | – | 48 +/− 1 a.u. | potent activator of tPA | enhanced ThT fluorescence to a large extent | – | – | – | – | –
Infliximab: human-murine chimeric monoclonal antibody (Remicade-infliximab) | 0% | amyloid-like properties are adopted | – | – | 19 +/− 1 a.u. | – | – | 67 +/− 2 a.u. | – | – | – | –
Insulin Aspart: rapid acting human insulin analogue (NovoRapid Flexpen, Novo Nordisk) | 70.93% | – | – | – | 172 +/− 3 a.u. | – | – | 81 +/− 2 a.u. | activated tPA to a lesser extent, but still significantly | 3.617 OD450 nm | – | –
Insulin Zn Suspension: recombinant human Zn2+-chelated insulin (Monotard, Novo Nordisk) | 17.44% | – | – | – | 387 +/− 72 a.u. | – | – | 79 +/− 6 a.u. | – | 0.7558 OD450 nm | binding of tPA was established | –
heat/acid-denatured glucagon: glucagon kept at 37° C. in 10 mM HCl | – | – | – | – | – | – | – | – | – | – | – | comprise the cross-β structure conformation
